MFI data for one substance are collected here from patent US20190389955A1.

This test has as its target human FLT3/FLK2 receptor protein (human) (UniProt P36888). The test can be described thus: flow cytometry on SP2/0 cells expressing human FLT3/FLK2; same table: unstained SP2/0 clone 3 6063, secondary Ab 9522.

Sequence of human FLT3/FLK2 receptor protein (human) (P36888 27-993): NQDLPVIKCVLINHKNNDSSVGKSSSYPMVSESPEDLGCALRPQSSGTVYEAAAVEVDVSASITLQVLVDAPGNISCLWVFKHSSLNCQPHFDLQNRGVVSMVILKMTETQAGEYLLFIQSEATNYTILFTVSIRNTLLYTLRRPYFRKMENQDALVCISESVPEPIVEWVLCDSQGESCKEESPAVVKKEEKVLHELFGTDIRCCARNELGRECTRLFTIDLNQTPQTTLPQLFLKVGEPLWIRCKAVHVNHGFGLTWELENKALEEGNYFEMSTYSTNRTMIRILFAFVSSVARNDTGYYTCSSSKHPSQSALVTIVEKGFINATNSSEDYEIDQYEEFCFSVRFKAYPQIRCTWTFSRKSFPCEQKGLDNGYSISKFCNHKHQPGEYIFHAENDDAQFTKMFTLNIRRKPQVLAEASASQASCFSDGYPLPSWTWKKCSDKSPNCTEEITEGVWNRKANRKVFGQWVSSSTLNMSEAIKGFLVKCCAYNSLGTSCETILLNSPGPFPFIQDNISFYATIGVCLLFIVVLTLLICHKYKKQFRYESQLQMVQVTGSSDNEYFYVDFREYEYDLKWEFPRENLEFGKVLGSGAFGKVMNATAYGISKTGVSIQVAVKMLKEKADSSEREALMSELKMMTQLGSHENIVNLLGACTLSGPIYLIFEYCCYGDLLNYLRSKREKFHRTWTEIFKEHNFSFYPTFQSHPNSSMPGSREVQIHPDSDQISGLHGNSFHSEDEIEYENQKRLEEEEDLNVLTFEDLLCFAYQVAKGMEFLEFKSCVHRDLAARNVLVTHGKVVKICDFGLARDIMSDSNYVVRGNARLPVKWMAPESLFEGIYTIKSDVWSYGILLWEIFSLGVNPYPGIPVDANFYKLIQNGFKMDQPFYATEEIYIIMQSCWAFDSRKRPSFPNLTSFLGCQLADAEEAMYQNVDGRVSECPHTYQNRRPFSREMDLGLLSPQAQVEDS

Regarding ISOTYPE CTR (antibody), the MFI worked out at 11500.
